# B1: SnapTag-yeast cytosine deaminase fusion protein (enzyme, UniProt Q12178 1-158, looked up)
# chain: MVTGGMASKWDQKGMDIAYEEAALGYKEGGVPIGGCLINNKDGSVLGRGHNMRFQKGSATLHGEISTLENCGRLEGKVYKDTTLYTTLSPCDMCTGAIIMYGIPRCVVGENVNFKSKGEKYLQTRGHEVVVVDDERCKKIMKQFIDERPQDWFEDIGE
# Legend:
# [1] = target: 2N:1E nanobody-enzyme megamolecule (two cutinase-5F7 nanobody fusions covalently linked to one SnapTag-yCD fusion) (yeast); test: SEC
# [2] = target: 2N:1E nanobody-enzyme megamolecule (two cutinase-5F7 nanobody fusions covalently linked to one SnapTag-yCD fusion) (yeast); test: negative-stain transmission electron microscopy
# [3] = target: 1N:1E nanobody-enzyme megamolecule (one cutinase-5F7 nanobody fusion covalently linked to one SnapTag-yCD fusion) (yeast); test: SEC
# [4] = target: 1N:1E nanobody-enzyme megamolecule (one cutinase-5F7 nanobody fusion covalently linked to one SnapTag-yCD fusion) (yeast); test: negative-stain transmission electron microscopy
# [5] = target: 1N:1E nanobody-enzyme megamolecule (one cutinase-5F7 nanobody fusion covalently linked to one SnapTag-yCD fusion) (yeast); test: enzyme activity against protein concentration
# [6] = target: the molecule itself; test: SEC
# [7] = target: the molecule itself; test: enzyme activity against protein concentration
molecule,measurement,setting,value
2N:1E nanobody-enzyme megamolecule (two cutinase-5F7 nanobody fusions covalently linked to one SnapTag-yCD fusion),stoichiometry N,[1],2
same,stoichiometry N,[2],2
1N:1E nanobody-enzyme megamolecule (one cutinase-5F7 nanobody fusion covalently linked to one SnapTag-yCD fusion),stoichiometry N,[3],2
same,stoichiometry N,[4],2
same,Kd,[5],38 µM
B1,stoichiometry N,[6],2
same,Kd,[7],12 µM

# Source: paper PMC8109025 (Bioconjugate chemistry, 2020)
